Measured values as given in PMC3310434 (Tuberculosis (Edinburgh, Scotland), 2011).

Key:
[1] = biological target: the molecule itself; test: crystal structure
[2] = biological target: the molecule itself; test: dynamic light scattering
[3] = biological target: T1, VapC-3 toxin of Mtb VapBC-3 (Rv0300-Rv0301) (Mycobacterium tuberculosis, UniProt P9WFB9 2-141); test: crystal structure
T1 sequence: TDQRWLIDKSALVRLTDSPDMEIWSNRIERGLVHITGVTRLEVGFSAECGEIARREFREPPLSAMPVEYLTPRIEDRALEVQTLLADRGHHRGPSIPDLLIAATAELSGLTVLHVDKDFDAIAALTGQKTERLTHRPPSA

[4] = biological target: the molecule itself; test: crystal structure; remark: listed apart in the source

B1: Mtb fumarase (enzyme)
chain: MAVDADSANYRIEHDTMGEVRVPAKALWRAQTQRAVENFPISGRGLERTQIRALGLLKGACAQVNSDLGLLAPEKADAIIAAAAEIADGQHDDQFPIDVFQTGSGTSSNMNTNEVIASIAAKGGVTLHPNDDVNMSQSSNDTFPTATHIAATEAAVAHLIPALQQLHDALAAKALDWHTVVKSGRTHLMDAVPVTLGQEFSGYARQIEAGIERVRACLPRLGELAIGGTAVGTGLNAPDDFGVRVVAVLVAQTGLSELRTAANSFEAQAARDGLVEASGALRTIAVSLTKIANDIRWMGSGPLTGLAEIQLPDLQPGSSIMPGKVNPVLPEAVTQVAAQVIGNDAAIAWGGANGAFELNVYIPMMARNILESFKLLTNVSRLFAQRCIAGLTANVEHLRRLAESSPSIVTPLNSAIGYEEAAAVAKQALKERKTIRQTVIDRGLIGDRLSIEDLDRRLDVLAMAKAEQLDSDRL
[1]
  stoichiometry N: 4

B2: Rv0812, putative Mtb 4-amino-4-deoxychorismate (ADC) lyase (PabC) (enzyme)
chain: MVVTLDGEILQPGMPLLHADDLAAVRGDGVFETLLVRDGRACLVEAHLQRLTQSARLMDLPEPDLPRWRRAVEVATQRWVASTADEGALRLIYSRGREGGSAPTAYVMVSPVPARVIGARRDGVSAITLDRGLPADGGDAMPWLIASAKTLSYAVNMAVLRHAARQGAGDVIFVSTDGYVLEGPRSTVVIATDGDQGGGNPCLLTPPPWYPILRGTTQQALFEVARAKGYDCDYRALRVADLFDSQGIWLVSSMTLAARVHTLDGRRLPRTPIAEVFAELVDAAIVSDR
[2]
  stoichiometry N: 2

B3: VapB-3 antitoxin of Mtb VapBC-3 (Rv0300-Rv0301) (natural protein)
chain: MSDVLIRDIPDDVLASLDAIAARLGLSRTEYIRRRLAQDAQTARVTVTAADLRRLRGAVAGLGDPELMRQAWR
[3]
  binding result: binds
[4]
  binding result: binds
